Assay [1] deals with T1, Thymic stromal lymphopoietin receptor (TSLPR) (human (endogenous in primary keratinocytes)) (UniProt Q9HC73).
T1 sequence: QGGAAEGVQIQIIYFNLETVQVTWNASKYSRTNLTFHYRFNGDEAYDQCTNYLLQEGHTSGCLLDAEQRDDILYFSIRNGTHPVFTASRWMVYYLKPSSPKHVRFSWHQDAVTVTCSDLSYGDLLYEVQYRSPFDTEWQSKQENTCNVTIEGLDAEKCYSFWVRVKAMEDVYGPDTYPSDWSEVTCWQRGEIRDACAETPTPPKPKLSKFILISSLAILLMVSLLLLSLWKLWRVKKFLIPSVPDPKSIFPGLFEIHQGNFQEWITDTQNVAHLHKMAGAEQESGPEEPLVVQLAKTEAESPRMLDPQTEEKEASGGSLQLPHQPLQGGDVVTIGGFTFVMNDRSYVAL

Assay [2] deals with T1, Thymic stromal lymphopoietin receptor (TSLPR) (human (endogenous in primary keratinocytes)). The source holds these as a separate data set.

In assay [1], “Thymic stromal lymphopoietin (TSLP), human recombinant (from UniProt Q969D9 29-159) (ligand)” gave an inhibition by the small molecule BP79 of TSLP-induced IL-4/IL-13 expression in primary human CD4+ T cells (ELISA, 36 h), dose-response, at 10 µM and 20 µM above 80%. In assay [2], this substance showed an inhibition by the small molecule BP79 of TSLP-induced IL-4 release from HuT78 cells (ELISA, 36 h), concentration series up to 20 µM of 60% and an inhibition by the small molecule BP79 of TSLP-induced IL-13 release from HuT78 cells (ELISA, 36 h), concentration series up to 20 µM of 80%.

Values taken from PMC11250841.
